# B1: Y1 scFv: fully human scFv clone binding platelets and myelogenous leukemia cells; SEQ ID NO: 25, heavy chain CDR3 SEQ ID NO: 8 (protein, listed as Homo sapiens)
# scFv: MKYLLPTAAAGLLLLAAQPAMAEVQLVESGGGVVRPGGSLRLSCAASGFTFDDYGMSWVRQAPGKGLEWVSGINWNGGSTGYADSVKGRFTISRDNAKNSLYLQMNSLRAEDTAVYYCARMRAPVIWGQGTLVTVSRGGGGSGGGGSGGGGSSELTQDPAVSVALGQTVRITCQGDSLRSYYASWYQQKPGQAPVLVIYGKNNRPSGIPDRFSGSSSGNTASLTITGAQAEDEADYYCNSRDSSGNHVVFGGGTKLTVLGAAAEQKLISEEDLNGAA
# Tested on: primary leukemia cells
# Assay: FACS analysis of binding to primary leukemia cells of patients
# Set-up: species or system human
# Method: Analysis of binding of scFv Y1 antibodies and anti-CD162 antibodies to diseased cells also illustrates that scFv Y1 has binding characteristics different from those of anti-CD-162 antibodies. […] Table F). Y1 binds to the leukemic cells in 10 of 12 samples. In contrast, anti-CD162 bound only 5 out of 12 samples. […] Thus, it may be concluded that, in leukemic cells, scFv Y1 binds to a ligand other than that recognized by anti-CD162.
# Samples provided from hospitals. Patients sample 30 μl/tube. Add 5 μl/tube of CD33-APC (for AML) or CD19-APC (for B-CLL) or CD38-APC (for Multiple Myeloma). Add 5 μl/tube of CD45-PerCp and 5 μl of scFv-Y1 or control scFv-N31 or CD162-PE (KPL1). Incubate tubes 30 minutes at 4° C. with low shaking. Wash by adding 2 ml PBS and spin 5 minutes at 1200 rpm. Discard supernatant.
# For a one step assay continue with the lysis step:
# Add 500 μl BD Lysine solution diluted 1:10 with ddH2O (300 μl to patient sample). Vortex at high speed and incubate 12 minutes at 4° C. Wash as above. Discard supernatant. And add 500 μl PBS. The samples are read in the FACS using blood sample acquisition setup according to international standards.
# For two or more assays: working buffer is PBS+1% BSA+0.05% sodium azide. Incubations and wash as above.
# Lysis of the red blood cells is the final step in the assay, followed by resuspension with 500 μl PBS.
molecule,measurement,setting,value
B1,leukemia patient samples whose leukemic cells are bound,"12 patient samples, FACS",10 of 12
same,% Positive,AML patients,80%
same,Number Positive,AML patients,60/75
same,% Negative,"B-ALL, Bone Marrow",67%
same,% Positive,"B-ALL, Bone Marrow",33%
same,Number Positive,"B-ALL, Bone Marrow",3/9
same,% Negative,"B-CLL, Peripheral Blood",26%
same,% Positive,"B-CLL, Peripheral Blood",74%
same,Number Positive,"B-CLL, Peripheral Blood",17/23
same,% Positive,B-Leukemia patients,67%
same,Number Positive,B-Leukemia patients,29/43
same,% Negative,"B-Lymphoma, Peripheral Blood",38%
same,% Positive,"B-Lymphoma, Peripheral Blood",62%
same,Number Positive,"B-Lymphoma, Peripheral Blood",5/8
same,% Positive,Multiple Myeloma patients,100%
same,Number Positive,Multiple Myeloma patients,16/16
same,% Negative,"Pre-B-ALL, Bone Marrow",0%
same,% Positive,"Pre-B-ALL, Bone Marrow",100%
same,Number Positive,"Pre-B-ALL, Bone Marrow",3/3

# — US20040002450A1, “Y17 - isolated molecules comprising epitopes containing sulfated moieties, antibodies to such epitopes, and uses thereof” (priority 2000, published 2004)
